This is an account of results in publication PMC3839617.

This experiment addresses neuropilin 1 (human) (UniProt O14786). Description: radioligand binding.
Sequence of UniProt O14786 (O14786 22-923): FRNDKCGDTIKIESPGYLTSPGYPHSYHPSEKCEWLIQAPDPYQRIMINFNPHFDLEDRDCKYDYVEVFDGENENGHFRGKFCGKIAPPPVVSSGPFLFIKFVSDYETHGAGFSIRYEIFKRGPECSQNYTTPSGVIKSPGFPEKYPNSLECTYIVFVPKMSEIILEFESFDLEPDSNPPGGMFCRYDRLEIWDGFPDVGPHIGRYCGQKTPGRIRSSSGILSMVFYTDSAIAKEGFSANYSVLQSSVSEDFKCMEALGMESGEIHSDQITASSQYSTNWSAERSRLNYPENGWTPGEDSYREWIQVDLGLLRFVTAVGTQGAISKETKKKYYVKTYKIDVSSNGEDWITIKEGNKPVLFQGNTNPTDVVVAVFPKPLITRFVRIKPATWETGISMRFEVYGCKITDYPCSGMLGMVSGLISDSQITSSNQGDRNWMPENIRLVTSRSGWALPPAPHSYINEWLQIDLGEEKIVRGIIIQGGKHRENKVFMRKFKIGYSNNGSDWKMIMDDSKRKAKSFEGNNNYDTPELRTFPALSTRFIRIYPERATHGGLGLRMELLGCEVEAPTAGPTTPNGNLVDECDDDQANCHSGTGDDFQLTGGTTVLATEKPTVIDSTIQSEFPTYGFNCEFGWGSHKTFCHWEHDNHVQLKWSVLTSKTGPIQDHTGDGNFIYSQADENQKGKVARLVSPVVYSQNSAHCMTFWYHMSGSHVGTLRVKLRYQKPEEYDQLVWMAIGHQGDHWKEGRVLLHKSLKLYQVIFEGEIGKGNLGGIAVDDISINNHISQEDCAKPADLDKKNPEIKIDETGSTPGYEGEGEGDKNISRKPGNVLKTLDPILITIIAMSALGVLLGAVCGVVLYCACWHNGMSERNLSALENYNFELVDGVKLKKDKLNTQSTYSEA

For “VEGF labelled by radioactive iodine (from UniProt P15692 1-395) (ligand)”, the I125VEGF bound was determined as 413 fmol/µg and the I125VEGF bound in the presence of SN was 504 fmol/µg.
